Our source for the IC50 values is the Immune Epitope Database (IEDB).

For orientation: IC50 means the point on the concentration scale where inhibition reaches its midpoint.

Targets include HLA-A*68:02; HLA-A*02:01; HLA-A*02:06; HLA-A*02:03; HLA-A*02:02.
Holding throughout (assay): IEDB peptide-MHC binding, purified MHC/competitive/radioactivity; ≥ and ≤ were set here for values at or beyond the usual limits of such assays
Setting [1] is: source organism: Vaccinia virus WR.
The mark [2] stands for this setting: source organism: Hepacivirus hominis.
The mark [3] stands for this setting: source organism: Influenza A virus.

As to TVQEFIFSAL, the IC50 was determined as 7.8 nM with HLA-A*68:02 (setting [1]); 321 nM with HLA-A*02:01 (setting [1]); 44 nM with HLA-A*02:06 (setting [1]); 90 nM with HLA-A*02:03 (setting [1]); 81 nM in the test with HLA-A*02:02 (setting [1]).

Turning to VIADYNYKL, the IC50 was found to be 290 nM in the test with HLA-A*68:02 (source organism: SARS-CoV1); 24 nM with HLA-A*02:01 (source organism: SARS-CoV1); 69 nM with HLA-A*02:06 (source organism: SARS-CoV1); 115 nM with HLA-A*02:03 (source organism: SARS-CoV1); 0.48 nM with HLA-A*02:02 (source organism: SARS-CoV1).

Consider VIIMAINVFT, for which the IC50 in the test with HLA-A*68:02 (setting [1]) is 740 nM; with HLA-A*02:01 (setting [1]), 641 nM; with HLA-A*02:06 (setting [1]) it was 674 nM; in the test with HLA-A*02:03 (setting [1]) it was 820 nM; in the test with HLA-A*02:02 (setting [1]), 320 nM.

As to VIKLVKSLV, the concentration for half-maximal inhibition (IC50) worked out at 640 nM in the test with HLA-A*68:02 (setting [1]); 881 nM in the test with HLA-A*02:01 (setting [1]); 4120 nM in the test with HLA-A*02:06 (setting [1]); 126 nM with HLA-A*02:03 (setting [1]); 1030 nM in the test with HLA-A*02:02 (setting [1]).

As for VISVIFYFI, the half-inhibitory concentration (IC50) with HLA-A*68:02 (setting [1]) came out at 7.6 nM; with HLA-A*02:01 (setting [1]), 331 nM; with HLA-A*02:06 (setting [1]), 497 nM; in the test with HLA-A*02:03 (setting [1]), 729 nM; in the test with HLA-A*02:02 (setting [1]), 1.4 nM.

As to VITYCLVTHM, the half-maximal inhibitory concentration (IC50) in the test with HLA-A*68:02 (setting [1]) stood at 387 nM; with HLA-A*02:01 (setting [1]) it was 1320 nM; in the test with HLA-A*02:06 (setting [1]) it was 2620 nM; in the test with HLA-A*02:03 (setting [1]), 582 nM; with HLA-A*02:02 (setting [1]), 478 nM.

In the case of VLAGGVLAAV, the IC50 in the test with HLA-A*68:02 (setting [2]) amounted to 59 nM; with HLA-A*02:01 (setting [2]) it was 7.8 nM; with HLA-A*02:06 (setting [2]) it was 33 nM; in the test with HLA-A*02:03 (setting [2]) it was 6.7 nM; with HLA-A*02:02 (setting [2]) it was 4.3 nM.

Take VLALYSPPL: the IC50 in the test with HLA-A*68:02 (setting [1]) came to 1400 nM; with HLA-A*02:01 (setting [1]) it was 0.19 nM; with HLA-A*02:06 (setting [1]), 33 nM; with HLA-A*02:03 (setting [1]) it was 0.41 nM; with HLA-A*02:02 (setting [1]), 0.22 nM.

For VLIAGIILLI, the IC50 with HLA-A*68:02 (setting [1]) was found to be 33 nM; with HLA-A*02:01 (setting [1]), 89 nM; with HLA-A*02:06 (setting [1]) it was 1020 nM; with HLA-A*02:03 (setting [1]), 35 nM; in the test with HLA-A*02:02 (setting [1]), 8.8 nM.

Regarding VLMTHFFSV, the concentration for half-maximal inhibition (IC50) with HLA-A*68:02 (setting [2]) turned out to be 103 nM; with HLA-A*02:01 (setting [2]), 1.9 nM; with HLA-A*02:06 (setting [2]), 6.1 nM; with HLA-A*02:03 (setting [2]), 2.6 nM; in the test with HLA-A*02:02 (setting [2]), 4.9 nM.

On to VLMTHFFSVL, for which the half-inhibitory concentration (IC50) with HLA-A*68:02 (setting [2]) was determined as 4690 nM; with HLA-A*02:01 (setting [2]) it was 114 nM; with HLA-A*02:06 (setting [2]), 112 nM; with HLA-A*02:03 (setting [2]) it was 21 nM; with HLA-A*02:02 (setting [2]) it was 62 nM.

Turning to VLMVDSFDPV, the IC50 stood at 1520 nM with HLA-A*68:02 (setting [2]); 33 nM with HLA-A*02:01 (setting [2]); 31 nM in the test with HLA-A*02:06 (setting [2]); 12 nM with HLA-A*02:03 (setting [2]); 13 nM with HLA-A*02:02 (setting [2]).

As to VLVGGVLAAL, the half-inhibitory concentration (IC50) came to 150 nM with HLA-A*68:02 (setting [2]); 60 nM with HLA-A*02:01 (setting [2]); 141 nM with HLA-A*02:06 (setting [2]); 5 nM in the test with HLA-A*02:03 (setting [2]); 11 nM in the test with HLA-A*02:02 (setting [2]).

Regarding VLWAHGFEL, the IC50 with HLA-A*68:02 (source organism: SARS-CoV1) is 3890 nM; with HLA-A*02:01 (source organism: SARS-CoV1), 0.4 nM; in the test with HLA-A*02:06 (source organism: SARS-CoV1) it was 20 nM; in the test with HLA-A*02:03 (source organism: SARS-CoV1), 34 nM; with HLA-A*02:02 (source organism: SARS-CoV1), 2.4 nM.

Consider VMCGGSLYV, for which the IC50 with HLA-A*68:02 (source organism: SARS-CoV1) was found to be 2910 nM; with HLA-A*02:01 (source organism: SARS-CoV1) it was 0.39 nM; with HLA-A*02:06 (source organism: SARS-CoV1) it was 6.8 nM; with HLA-A*02:03 (source organism: SARS-CoV1) it was 7.5 nM; in the test with HLA-A*02:02 (source organism: SARS-CoV1) it was 0.61 nM.

On to VMYAFTTPL, for which the half-maximal inhibitory concentration (IC50) in the test with HLA-A*68:02 (setting [1]) is 112 nM; with HLA-A*02:01 (setting [1]) it was 0.87 nM; with HLA-A*02:06 (setting [1]), 5.7 nM; with HLA-A*02:03 (setting [1]), 1.3 nM; with HLA-A*02:02 (setting [1]), 0.57 nM.

Turning to VMYAFTTPLI, the IC50 in the test with HLA-A*68:02 (setting [1]) turned out to be 132 nM; with HLA-A*02:01 (setting [1]) it was 3.1 nM; with HLA-A*02:06 (setting [1]), 12 nM; in the test with HLA-A*02:03 (setting [1]), 4.8 nM; with HLA-A*02:02 (setting [1]) it was 0.72 nM.

Turning to VMYASALVLL, the IC50 is 756 nM with HLA-A*68:02 (source organism: SARS-CoV1); 5.7 nM in the test with HLA-A*02:01 (source organism: SARS-CoV1); 41 nM in the test with HLA-A*02:06 (source organism: SARS-CoV1); 4 nM with HLA-A*02:03 (source organism: SARS-CoV1); 0.25 nM in the test with HLA-A*02:02 (source organism: SARS-CoV1).

In the case of VNNAVVMPA, the IC50 with HLA-A*68:02 (setting [3]) is 1910 nM; in the test with HLA-A*02:01 (setting [3]) it was 468 nM; in the test with HLA-A*02:06 (setting [3]), 828 nM; with HLA-A*02:03 (setting [3]), 712 nM; in the test with HLA-A*02:02 (setting [3]), 231 nM.

As for VQEFIFSAL, the half-maximal inhibitory concentration (IC50) with HLA-A*68:02 (setting [1]) was found to be 552 nM; in the test with HLA-A*02:01 (setting [1]), 614 nM; with HLA-A*02:06 (setting [1]), 198 nM; with HLA-A*02:03 (setting [1]), 466 nM; with HLA-A*02:02 (setting [1]), 419 nM.

In the case of VTFINDYANL, the concentration for half-maximal inhibition (IC50) was 527 nM with HLA-A*68:02 (setting [1]); 2480 nM in the test with HLA-A*02:01 (setting [1]); 148 nM with HLA-A*02:06 (setting [1]); 247 nM in the test with HLA-A*02:03 (setting [1]); 99 nM with HLA-A*02:02 (setting [1]).

As for VTLFIDRGSI, the concentration for half-maximal inhibition (IC50) with HLA-A*68:02 (setting [1]) is 14 nM; in the test with HLA-A*02:01 (setting [1]) it was 1500 nM; with HLA-A*02:06 (setting [1]) it was 3010 nM; with HLA-A*02:03 (setting [1]), 2250 nM; in the test with HLA-A*02:02 (setting [1]), 3830 nM.

For VVFLHVTYV, the IC50 with HLA-A*68:02 (source organism: SARS-CoV1) stood at 1 nM; in the test with HLA-A*02:01 (source organism: SARS-CoV1), 3.9 nM; with HLA-A*02:06 (source organism: SARS-CoV1) it was 3.9 nM; with HLA-A*02:03 (source organism: SARS-CoV1), 0.28 nM; with HLA-A*02:02 (source organism: SARS-CoV1), 7.8 nM.
